# Patent US20240383985A1 (QURE BIOTECHNOLOGY SHANGHAI, published 2024)
# Target: T1, CD33 naturally expressed on HL60 cells (human, UniProt P20138 18-364)
# T1 construct: whole, on cells
# Assay: flow cytometry on HL60 cells, PE-anti human Fc detection
# Procedure: Experimental method: HL60 cells were cultured in a 5% CO₂ incubator at 37° C. After trypsin digestion, cells were collected and inoculated into 96-well plates at 100,000 cells per well. Then the plate was subjected to blocking on ice for 1 hour with 2% FBS/PBS. The cells were incubated with different concentrations of trifunctional proteins and control protein on ice for 1 hour, washed with PBS for 3 times, and incubated with PE-anti human Fc (1:200 dilution). The cells were washed with PBS for 3 times, and resuspended with 200 μl PBS. The mean fluorescence value was read by FACS and Graphpad prism software was used to analyze the results.
# T1 sequence (P20138 18-364): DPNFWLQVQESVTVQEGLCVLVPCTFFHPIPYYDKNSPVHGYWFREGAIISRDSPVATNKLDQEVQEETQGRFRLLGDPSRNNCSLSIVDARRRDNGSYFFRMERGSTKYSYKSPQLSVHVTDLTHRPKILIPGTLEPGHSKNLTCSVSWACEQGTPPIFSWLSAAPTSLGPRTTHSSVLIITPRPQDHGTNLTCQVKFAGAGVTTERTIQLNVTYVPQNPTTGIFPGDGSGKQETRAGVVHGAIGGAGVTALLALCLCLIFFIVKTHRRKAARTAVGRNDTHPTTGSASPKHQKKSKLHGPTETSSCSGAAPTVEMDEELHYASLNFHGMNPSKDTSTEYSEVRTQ
row,Binder,binding result
1,CD33/CD16A/IL-15 trifunctional fusion protein QP743745 (FC wild-type) (bispecific antibody) chain 1: not shown chain 2: not shown light: DIVMTQSPDSLTVSLGERTTINCKSSQSVLDSSTNKNSLAWYQQKPGQPPKLLLSWASTRESGIPDRFSGSGSGTDFTLTIDSPQPEDSATYYCQQSAHFPITFGQGTRLEIKRTVAAPSVFIFPPSDEQLKSGTASVVCLLNNFYPREAKVQWKVDNALQSGNSQESVTEQDSKDSTYSLSSTLTLSKADYEKHKVYACEVTHQGLSSPVTKSFNRGEC heavy: QVQLVQSGAEVKKPGESVKVSCKASGYTFTNYGMNWVKQAPGQGLEWMGWINTYTGEPTYADKFQGRVTMTTDTSTSTAYMEIRNLGGDDTAVYYCARWSWSDGYYVYFDYWGQGTSVTVSSASTKGPSVFPLAPSSKSTSGGTAALGCLVKDYFPEPVTVSWNSGALTSGVHTFPAVLQSSGLYSLSSVVTVPSSSLGTQTYICNVNHKPSNTKVDKKVEPKSCDKTHTCPPCPAPELLGGPSVFLFPPKPKDTLMISRTPEVTCVVVDVSHEDPEVKFNWYVDGVEVHNAKTKPREEQYNSTYRVVSVLTVLHQDWLNGKEYKCKVSNKALPAPIEKTISKAKGQPREPQVYTLPPSREEMTKNQVSLSCAVKGFYPSDIAVEWESNGQPENNYKTTPPVLDSDGSFFLVSKLTVDKSRWQQGNVFSCSVMHEALHNRYTQKSLSLSPGK,binds
2,"CD33/CD16A bispecific antibody QP4115777778 (FC wild-type) (bispecific antibody, human IgG1, kappa, also called QP411577778; CD16A/CD33 bispecific antibody) not shown heavy: QVQLVQSGAEVKKPGESVKVSCKASGYTFTNYGMNWVKQAPGQGLEWMGWINTYTGEPTYADKFQGRVTMTTDTSTSTAYMEIRNLGGDDTAVYYCARWSWSDGYYVYFDYWGQGTSVTVSSASTKGPSVFPLAPSSKSTSGGTAALGCLVKDYFPEPVTVSWNSGALTSGVHTFPAVLQSSGLYSLSSVVTVPSSSLGTQTYICNVNHKPSNTKVDKKVEPKSCDKTHTCPPCPAPELLGGPSVFLFPPKPKDTLMISRTPEVTCVVVDVSHEDPEVKFNWYVDGVEVHNAKTKPREEQYNSTYRVVSVLTVLHQDWLNGKEYKCKVSNKALPAPIEKTISKAKGQPREPQVYTLPPSREEMTKNQVSLSCAVKGFYPSDIAVEWESNGQPENNYKTTPPVLDSDGSFFLVSKLTVDKSRWQQGNVFSCSVMHEALHNRYTQKSLSLSPGKGGSHHHHHH light: DIVMTQSPDSLTVSLGERTTINCKSSQSVLDSSTNKNSLAWYQQKPGQPPKLLLSWASTRESGIPDRFSGSGSGTDFTLTIDSPQPEDSATYYCQQSAHFPITFGQGTRLEIKRTVAAPSVFIFPPSDEQLKSGTASVVCLLNNFYPREAKVQWKVDNALQSGNSQESVTEQDSKDSTYSLSSTLTLSKADYEKHKVYACEVTHQGLSSPVTKSFNRGEC",binds
3,"CD33/CD16A/IL-15 trifunctional fusion protein QP42914285 (FC with L234A/L235A mutation for eliminating function) (bispecific antibody, Four-chain heterodimer: anti-CD16A Fab arm and anti-CD33 Fv-IL-15/IL-15Ra arm) light: SYVLTQPSSVSVAPGQTATISCGGHNIGSKNVHWYQQRPGQSPVLVIYQDNKRPSGIPERFSGSNSGNTATLTISGTQAMDEADYYCQVWDNYSVLFGGGTKLTVLRTVAAPSVFIFPPSDEQLKSGTASVVCLLNNFYPREAKVQWKVDNALQSGNSQESVTEQDSKDSTYSLSSTLTLSKADYEKHKVYACEVTHQGLSSPVTKSFNRGEC heavy: QVQLVQSGAEVKKPGESLKVSCKASGYTFTSYYMHWVRQAPGQGLEWMGIINPSGGSTSYAQKFQGRVTMTRDTSTSTVYMELSSLRSEDTAVYYCARGSAYYYDFADYWGQGTLVTVSSASTKGPSVFPLAPSSKSTSGGTAALGCLVKDYFPEPVTVSWNSGALTSGVHTFPAVLQSSGLYSLSSVVTVPSSSLGTQTYICNVNHKPSNTKVDKKVEPKSCDKTHTCPPCPAPEAAGGPSVFLFPPKPKDTLMISRTPEVTCVVVDVSHEDPEVKFNWYVDGVEVHNAKTKPREEQYNSTYRVVSVLTVLHQDWLNGKEYKCKVSNKALPAPIEKTISKAKGQPREPQVYTLPPSREEMTKNQVSLSCAVKGFYPSDIAVEWESNGQPENNYKTTPPVLDSDGSFFLVSKLTVDKSRWQQGNVFSCSVMHEALHNRYTQKSLSLSPGKGGSHHHHHH chain 1: not shown chain 2: not shown",binds

# Next, values leading:
row,binding result,Binder
1,binds,"CD33/CD16A/IL-15 trifunctional fusion protein QP43394340 (FC with L234A/L235A mutation for eliminating function) (bispecific antibody, Four-chain heterodimer, hIgG1 Fc LALA; plasmid names mention Flag and His tags) chain 1: not shown chain 2: not shown light: DIVMTQSPDSLTVSLGERTTINCKSSQSVLDSSTNKNSLAWYQQKPGQPPKLLLSWASTRESGIPDRFSGSGSGTDFTLTIDSPQPEDSATYYCQQSAHFPITFGQGTRLEIKRTVAAPSVFIFPPSDEQLKSGTASVVCLLNNFYPREAKVQWKVDNALQSGNSQESVTEQDSKDSTYSLSSTLTLSKADYEKHKVYACEVTHQGLSSPVTKSFNRGEC heavy: QVQLVQSGAEVKKPGESVKVSCKASGYTFTNYGMNWVKQAPGQGLEWMGWINTYTGEPTYADKFQGRVTMTTDTSTSTAYMEIRNLGGDDTAVYYCARWSWSDGYYVYFDYWGQGTSVTVSSASTKGPSVFPLAPSSKSTSGGTAALGCLVKDYFPEPVTVSWNSGALTSGVHTFPAVLQSSGLYSLSSVVTVPSSSLGTQTYICNVNHKPSNTKVDKKVEPKSCDKTHTCPPCPAPEAAGGPSVFLFPPKPKDTLMISRTPEVTCVVVDVSHEDPEVKFNWYVDGVEVHNAKTKPREEQYNSTYRVVSVLTVLHQDWLNGKEYKCKVSNKALPAPIEKTISKAKGQPREPQVYTLPPSREEMTKNQVSLSCAVKGFYPSDIAVEWESNGQPENNYKTTPPVLDSDGSFFLVSKLTVDKSRWQQGNVFSCSVMHEALHNRYTQKSLSLSPGK"
2,binds,"CD33 antibody IgG1 wt subtype QP41154116 (antibody, V domains shown, IgG1 wild-type control antibody; also called antiCD33 antibody) VH: QVQLVQSGAEVKKPGESVKVSCKASGYTFTNYGMNWVKQAPGQGLEWMGWINTYTGEPTYADKFQGRVTMTTDTSTSTAYMEIRNLGGDDTAVYYCARWSWSDGYYVYFDYWGQGTSVTVSS VL: DIVMTQSPDSLTVSLGERTTINCKSSQSVLDSSTNKNSLAWYQQKPGQPPKLLLSWASTRESGIPDRFSGSGSGTDFTLTIDSPQPEDSATYYCQQSAHFPITFGQGTRLEIKR"
